In patent US20200297863A1, “ANTI-EGFR ANTIBODY DRUG CONJUGATES (ADC) AND USES THEREOF” (AbbVie Inc., priority 2017, published 2020):

Experiments:
CTG-9786 = CTG-9786 patient-derived head and neck cancer xenograft model; type: in vivo; conditions: much higher dose than the PBD ADCs
Excerpt: (§1) Numbers in parentheses represent dose in mg/kg, and arrows represent days of dosing.

LoVo = LoVo colorectal adenocarcinoma xenograft model; type: in vivo, mice; conditions: administered at a much higher dose than the PBD conjugates
Method: Numbers in parentheses represent dose in mg/kg. Arrows represent days of dosing.
Both conjugates were administered at 0.5mg/kg on a q7dx6 regimen (where mice were dosed every 7 days for 6 weeks).

CTG-0162 = CTG-0162 patient-derived NSCLC xenograft model; type: in vivo; conditions: dosed ten-fold higher than the PBD ADCs
Excerpt: as §1

B1: AbA-MMAE: AbA conjugated to monomethyl auristatin E via a cleavable valine-citrulline (VC) linker; DAR about 3 (conjugate, chains of the INN, looked up)
VH: EVQLQESGPGLVKPSQTLSLTCTVSGYSISRDFAWNWIRQPPGKGLEWMGYISYNGNTRYQPSLKSRITISRDTSKNQFFLKLNSVTAADTATYYCVTASRGFPYWGQGTLVTVSS
VL: DIQMTQSPSSMSVSVGDRVTITCHSSQDINSNIGWLQQKPGKSFKGLIYHGTNLDDGVPSRFSGSGSGTDYTLTISSLQPEDFATYYCVQYAQFPWTFGGGTKLEIK
modifications: vc-MMAE payload, DAR about 3
inhibition of tumor growth (CTG-9786): effective, but required a much higher dose | tumor response (LoVo): active in this model, with activity similar to that observed with Ab1(S239C)-PBD | inhibition of tumor growth (CTG-0162): less efficacious
